Assay results reported in the DeepSol protein solubility set.

Assay: soluble on expression in E. coli; label from the status in PepcDB or PDB records

Soluble on expression in E. coli, not soluble:
MGSDKIHHHHHHMTVHWRERVGNQRDWVWRGWRTRYTYIRPSQEGQEKTPLILLHGFGASIGHWRHNLEVLGESHTVYALDMLGFGGSEKAPANYSIELWVEQVYDFWRAFIRQPVVLIGNSNGSLISLAAAAAHPDMVKGIVMMSLPDPSLEQEMIPPFLRPVVTTIKNIVASPIFLKPVFYFVRRPSILRRWAGIAYANPAAITDELVDILAGPPQDRGSARAFSALFKAAIGVNFSPSVKAILPTLQIPMLLIWGNKDRFVPPILANQFAQYNEKLQLLNLDDVGHCPHDECPEQVNKAILAWMDKSLGDY
MSLSAPLGENMSNLTSEERHARLRQIYIEKERRQRLGSRMGLSPLEEEANDRLMAIRQVDEEFYNLWRNYHSQPPPFLKHLNIIDTNLYAALKSMPKGGLLHVHDSGMLRMEILIDLIYRDNLWVCVNLEQDFEDFRFSRYFPHIPPAEDYQCNWMLMSNFFQLESRLEFENRLRKILTVRPEGYKSSSELVRHLRRHQRIIHGLITFRPIWSEFIFTMLSDFYADGVHYVELRSSLPNMYDLDGNNFTILETAEALVSVSNIFKNSFKDFIGIKLIYAPSRNLNDSRMDEYLENARLLKLHFPNFFAGFDLNTFGDECNLPLLENVTQLLRIGKNIDFYFHAGESRCPDSSRPDANLLEALLLQSKRIGNAVNLPFHPEIMKVMKRLSIAVEICPLSNHYLQYFNDFRQHPAAYLIAAGFPIVIGSDYPCFWNSAPLTDDFYVAFVGVISGWGDLRLLKQFALNSFLFSSLSETEKNMAVSKWQCSWNRWVRNLVNSSGYEGHHHHHH
MGSDKIHHHHHHLKQKILHIIDSFSTGGAEVLLAGVIPELVDFEHVIVYLTPTKTPILSSDPTIKIVCLNFRSITDATRIIKDLNTIIEQEKPGIIHTHLYFSSLFIRFARTNKINIIQTYHNEYYRIRYPQFSARIKKIGLKLLDRFTMKNAYTVIHVSKAQQLVNDHDVRIKSSAVLYNYVEDQFYQTRKTSSFKGTGKLKIICVGNLKTEKNHILLLHALRQLMHLPIHVTICGEGNDYIMLQKYINRYDLPVTLMGSQKNIHELLGQHDLFVSCSIIEGFGISIAEAMASEIPLIISDISTFKEVTQNKAVFFESRNVASLAEKIEQFYLSPQSAAASVLACKEIAEQYKKSFYLDRLNTLYKK
MGSDKIHHHHHHDFLDRHPQGQFTEDDNPGALAEGKVFNIYTMMRNYNITAGIPAFAIEYFRSEDSEKGSTASDGADQAAMYDDFQYNASNGLIKAYWSQNYAVIYQCNDVIETIEKGNLTEENDLRNKGEALFFRAYCYFNLVRAFGEVPLVTFKVNDASEANVPKTTAEEIYKQIDSDLTQAEGLLPRQWQSAYLGRLTWGSARALHARTYMMRNDWQNMYTAATDVMNSGQYNLNTPYDVIFTDEGENSSESVFELQCASTAALPASDKIGSQFCEVQGVRGSGQWDLGWGWHMGTELMGEAFEPGDPRKDATLLYFRRSDTDPITPENTNKPYGESPVSQADGTYFNKKAYTNPALREEFTRHGFWVNIRIIRYGDVVLMAAESANELGKTGEASNYLEMVRARARGNNPDILPKVTSLDQTVLRDAIRHERRVELGLESGRFYDLVRWGIASQVLHAAGKTGYQPKNALLPLPQDEIDKSKGVLVQNPDY
MNMFNRKAKQEVTKKPEASNGSKNSKSTFVNSKSPNQKRREVKKSDSDTESSHKNTRRTKPVPVPAASSNSKGSNEKHKRKSVQQVVKKVVNHIPFSPSKQPKSTSTPPVSEGNRKRLAMADVSINQLESEMDSFVKKIEPNERRATQYIHSNSLSRSNEAVPPGNVKTSQQKADHHLIRTTRSLIGLDGETEAVYSKATKASPDKGKLTADSPSSRRTSKSLEENSSETTNDSISLADDEETREAYRKLFKDFAMSSQKMTLDDFKQEFSNLPGDPPSDLCTVFNHPVNNKKNRYSNIPCLDISRVQLKFKMPNKNSTDYIHANYIRSPFLKRGYILTQGPKKETRADFWRMIWQENTTAIVMLCQFLETNREKCAEYFPRNAHCCLQFDKFSVNYEDSTVNKSLVTTRLNLSYEGETRLITHWLWKEWPDWQVPESSEVMLKILRKIRARSTPPVIHCSAGVGRSGTLMAVEIALQSIHTHFTLPDIKQIVSHLRVTGRAASVQTLQQYMLIWKVLLDFGVAYKQITEELAEKFNSTYRRSLRSINGT
